In patent US20240400614A1, “CLEAVABLE PEPTIDES AND METHODS OF USE THEREOF” (Bright Peak Therapeutics AG, priority 2023, published 2024):
Square brackets hold non-standard residues; d marks the D form. Ends that are not written are not given here. Tyr(3-NO2) = N[C@@H](Cc1ccc(O)c([N+](=O)[O-])c1)C(=O)O; Nle = CCCC[C@H](N)C(=O)O; 2Abz = Nc1ccccc1C(=O)O

What was measured:
Assay type in all cases: biochemical
matriptase = target: T1, matriptase (Homo sapiens, UniProt Q9Y5Y6); experiment: FRET peptide cleavage efficiency with matriptase
T1 construct: purchased R&D Systems 3946-SEB
T1 sequence (Q9Y5Y6 615-855 limits assumed): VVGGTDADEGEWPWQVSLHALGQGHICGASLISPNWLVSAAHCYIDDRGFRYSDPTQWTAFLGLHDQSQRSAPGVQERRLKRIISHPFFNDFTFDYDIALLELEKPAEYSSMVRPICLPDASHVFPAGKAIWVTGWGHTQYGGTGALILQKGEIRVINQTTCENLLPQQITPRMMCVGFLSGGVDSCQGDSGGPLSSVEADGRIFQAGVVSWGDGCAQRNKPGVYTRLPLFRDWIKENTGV

MMP-9 = target: T2, MMP-9 (Homo sapiens, UniProt P14780); experiment: FRET peptide cleavage efficiency with MMP-9 (standard pH 7.5; also pH 6.5)
T2 construct: purchased SIGMA PF024
T2 sequence (P14780 94-707): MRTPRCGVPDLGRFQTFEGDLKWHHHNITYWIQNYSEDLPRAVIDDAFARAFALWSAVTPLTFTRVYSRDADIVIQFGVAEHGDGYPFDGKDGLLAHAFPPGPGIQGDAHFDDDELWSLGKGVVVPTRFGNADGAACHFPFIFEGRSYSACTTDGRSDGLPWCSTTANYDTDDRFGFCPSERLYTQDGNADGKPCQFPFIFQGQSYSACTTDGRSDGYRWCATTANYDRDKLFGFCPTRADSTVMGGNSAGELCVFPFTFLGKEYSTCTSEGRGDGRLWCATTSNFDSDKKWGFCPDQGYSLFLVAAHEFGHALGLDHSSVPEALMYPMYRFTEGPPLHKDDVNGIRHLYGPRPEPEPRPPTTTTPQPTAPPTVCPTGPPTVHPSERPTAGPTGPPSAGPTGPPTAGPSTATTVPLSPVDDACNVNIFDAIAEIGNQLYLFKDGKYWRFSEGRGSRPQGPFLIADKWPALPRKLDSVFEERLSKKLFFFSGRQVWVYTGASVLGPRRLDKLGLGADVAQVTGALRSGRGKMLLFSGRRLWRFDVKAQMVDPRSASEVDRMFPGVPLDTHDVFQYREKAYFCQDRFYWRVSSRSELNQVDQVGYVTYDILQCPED

MMP-7 = target: T3, MMP-7 (Homo sapiens, UniProt P09237); experiment: FRET peptide cleavage efficiency with MMP-7 (standard pH 7.5; also pH 6.5)
T3 construct: purchased SIGMA CC1059
T3 sequence (P09237 95-267): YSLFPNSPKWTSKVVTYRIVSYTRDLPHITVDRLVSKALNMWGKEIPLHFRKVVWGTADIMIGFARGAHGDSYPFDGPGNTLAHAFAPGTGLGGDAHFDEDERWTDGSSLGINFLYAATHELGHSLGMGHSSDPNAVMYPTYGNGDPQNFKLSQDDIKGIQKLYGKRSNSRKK

uPA = uPA (Homo sapiens, UniProt P00749); experiment: FRET peptide cleavage efficiency with uPA
MMP-2 = target: T4, MMP-2 (Homo sapiens, UniProt P08253); experiment: FRET peptide cleavage efficiency with MMP-2
T4 construct: purchased SIGMA PF023
T4 sequence (P08253 110-660): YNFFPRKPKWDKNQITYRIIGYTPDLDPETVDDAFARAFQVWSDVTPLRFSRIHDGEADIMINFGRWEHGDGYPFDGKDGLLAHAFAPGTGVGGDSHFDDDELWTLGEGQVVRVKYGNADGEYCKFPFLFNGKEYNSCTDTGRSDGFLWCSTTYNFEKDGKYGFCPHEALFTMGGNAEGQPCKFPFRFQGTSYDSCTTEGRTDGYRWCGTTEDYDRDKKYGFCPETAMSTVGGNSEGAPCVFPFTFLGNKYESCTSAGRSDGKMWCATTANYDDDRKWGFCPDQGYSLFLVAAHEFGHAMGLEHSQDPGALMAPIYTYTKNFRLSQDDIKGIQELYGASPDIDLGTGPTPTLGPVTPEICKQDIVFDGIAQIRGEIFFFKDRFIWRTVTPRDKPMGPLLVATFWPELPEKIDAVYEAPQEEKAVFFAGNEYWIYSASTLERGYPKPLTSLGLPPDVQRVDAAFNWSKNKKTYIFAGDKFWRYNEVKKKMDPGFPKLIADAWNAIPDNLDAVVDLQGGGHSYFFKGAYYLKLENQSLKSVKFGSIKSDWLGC

[1] = t = 15 min, standard conditions (Table 8)
[2] = t = 60 min, standard conditions (Table 8)
[3] = t = 120 min, standard conditions (Table 8)
[4] = 200 uM linker, 1 ug/ml protease, 37° C., buffer B pH 9.0
[5] = 200 uM linker, 1 ug/ml protease, 37° C., buffer A pH 8.5

Substance | % cleavage Matriptase t = 15 min (matriptase; standard conditions (Table 8)) | % cleavage Matriptase t = 60 min (matriptase; standard conditions (Table 8)) | % cleavage Matriptase t = 120 min (matriptase; standard conditions (Table 8)) | % cleavage MMP-9 t = 15 min (MMP-9; t = 15 min (Table 9)) | % cleavage MMP-9 t = 15 min (MMP-9; [1]) | % cleavage MMP-9 t = 60 min (MMP-9; t = 60 min (Table 9)) | % cleavage MMP-9 t = 60 min (MMP-9; [2]) | % cleavage MMP-9 t = 120 min (MMP-9; t = 120 min (Table 9)) | % cleavage MMP-9 t = 120 min (MMP-9; [3]) | % cleavage MMP-7 t = 15 min (MMP-7; t = 15 min (Table 9)) | % cleavage MMP-7 t = 15 min (MMP-7; [1]) | % cleavage MMP-7 t = 60 min (MMP-7; t = 60 min (Table 9)) | % cleavage MMP-7 t = 60 min (MMP-7; [2]) | % cleavage MMP-7 t = 120 min (MMP-7; t = 120 min (Table 9)) | % cleavage MMP-7 t = 120 min (MMP-7; [3]) | % vcleavage uPA t = 15 min (uPA; [1]) | % cleavage uPA t = 60 min (uPA; standard conditions (Table 8)) | % cleavage MMP-2 t = 15 min (MMP-2; t = 15 min (Table 9)) | % cleavage MMP-2 t = 60 min (MMP-2; t = 60 min (Table 9)) | % cleavage MMP-2 t = 120 min (MMP-2; t = 120 min (Table 9)) | also measured
RGRKSPY-Nle-LQG ([2Abz]RGRKSPY[Nle]LQG[Tyr(3-NO2)]-NH2) [LNK038] | 100% | 100% | 100% | 23% | 23% | 71% | 71% | 97% | 97% | 22% | 22% | 69% | 69% | 92% | 92% | 0% | 0% | 19% | 55% | 76% | % cleavage uPA t = 120 min (uPA; standard conditions (Table 8)): 0%; % cleavage MMP-2 t = 60 min (MMP-2; [2]): 55%; % cleavage MMP-2 t = 120 min (MMP-2; [3]): 76%
RGRKSPYMLQG ([2Abz]RGRKSPYMLQG[Tyr(3-NO2)]-NH2) [LNK037] | 90% | 100% | 100% | 46% | 46% | 100% | 100% | 100% | 100% | 19% | 19% | 63% | 63% | 88% | 88% | 0% | 0% | 28% | 70% | 89% | % cleavage uPA t = 120 min (uPA; standard conditions (Table 8)): 0%; % cleavage MMP-2 t = 60 min (MMP-2; [2]): 70%; % cleavage MMP-2 t = 120 min (MMP-2; [3]): 89%
RGRKSQPLVD ([2Abz]RGRKSQPLVD[Tyr(3-NO2)]-NH2) [LNK041] | 100% | 100% | 100% | 0% | 0% | 1% | 1% | 1% | 1% | 1% | 1% | 4% | 4% | 9% | 9% | 0% | 0% | 0% | 0% | 0% | % cleavage uPA t = 120 min (uPA; standard conditions (Table 8)): 0%; % cleavage MMP-2 t = 60 min (MMP-2; [2]): 0%; % cleavage MMP-2 t = 120 min (MMP-2; [3]): 0%

Continued, in another order:

% cleavage Matriptase t = 15 min (matriptase; standard conditions (Table 8)) | % cleavage Matriptase t = 60 min (matriptase; standard conditions (Table 8)) | % cleavage Matriptase t = 120 min (matriptase; standard conditions (Table 8)) | % cleavage MMP-9 t = 15 min (MMP-9; t = 15 min (Table 9)) | % cleavage MMP-9 t = 15 min (MMP-9; [1]) | % cleavage MMP-9 t = 60 min (MMP-9; t = 60 min (Table 9)) | % cleavage MMP-9 t = 60 min (MMP-9; [2]) | % cleavage MMP-9 t = 120 min (MMP-9; t = 120 min (Table 9)) | % cleavage MMP-9 t = 120 min (MMP-9; [3]) | % cleavage MMP-7 t = 15 min (MMP-7; t = 15 min (Table 9)) | % cleavage MMP-7 t = 15 min (MMP-7; [1]) | % cleavage MMP-7 t = 60 min (MMP-7; t = 60 min (Table 9)) | % cleavage MMP-7 t = 60 min (MMP-7; [2]) | % cleavage MMP-7 t = 120 min (MMP-7; t = 120 min (Table 9)) | % cleavage MMP-7 t = 120 min (MMP-7; [3]) | % vcleavage uPA t = 15 min (uPA; [1]) | % cleavage uPA t = 60 min (uPA; standard conditions (Table 8)) | % cleavage MMP-2 t = 15 min (MMP-2; t = 15 min (Table 9)) | % cleavage MMP-2 t = 60 min (MMP-2; t = 60 min (Table 9)) | % cleavage MMP-2 t = 120 min (MMP-2; t = 120 min (Table 9)) | Substance | also measured
99% | 100% | 100% | 75% | 75% | 100% | 100% | 100% | 100% | 22% | 22% | 74% | 74% | 93% | 93% | 1% | 1% | 77% | 100% | 100% | RGRKVANLVG ([2Abz]RGRKVANLVG[Tyr(3-NO2)]-NH2) [LNK031] | % cleavage uPA t = 120 min (uPA; standard conditions (Table 8)): 2%; % cleavage MMP-2 t = 60 min (MMP-2; [2]): 100%; % cleavage MMP-2 t = 120 min (MMP-2; [3]): 100%
 |  |  | 32% |  | 100% |  | 100% |  | 0% |  | 0% |  | 0% |  |  |  | 76% | 100% | 100% | RGRRAANLVRPLGYFGKL ([2Abz]RGRRAANLVRPLGYFGKL[Tyr(3-NO2)]-NH2) [LNK060] | % cleavage Matriptase t = 15 min (matriptase; [4]): 90%; % cleavage Matriptase t = 60 min (matriptase; [4]): 100%; % cleavage Matriptase t = 120 min (matriptase; [4]): 100%; % cleavage uPA t = 15 min (uPA; t = 15 min, 200 uM linker, 1 ug/ml protease, 37° C., buffer A pH 8.5): 2%; % cleavage uPA t = 60 min (uPA; [5]): 11%; % cleavage uPA t = 120 min (uPA; [5]): 25%; % cleavage MMP-2 t = 15 min (MMP-2; t = 15 min, 200 uM linker, 1 ug/ml protease, 37° C., buffer C pH 7.5): 76%; % cleavage MMP-2 t = 60 min (MMP-2; t = 60 min, 200 uM linker, 1 ug/ml protease, 37° C., buffer C pH 7.5): 100%; % cleavage MMP-2 t = 120 min (MMP-2; t = 120 min, 200 uM linker, 1 ug/ml protease, 37° C., buffer C pH 7.5): 100%
100% | 100% | 100% | 0% | 0% | 0% | 0% | 0% | 0% | 0% | 0% | 0% | 0% | 0% | 0% | 0% | 0% | 0% | 0% | 0% | RGRRGP ([2Abz]RGRRGP[Tyr(3-NO2)]-NH2) [LNK048] | % cleavage uPA t = 120 min (uPA; standard conditions (Table 8)): 0%; % cleavage MMP-2 t = 60 min (MMP-2; [2]): 0%; % cleavage MMP-2 t = 120 min (MMP-2; [3]): 0%
